{"source": "patent US12099068B2", "about": "“Biomarkers for graft-versus-host disease” (Incyte Corporation, priority 2018, dated 2024)", "molecules": {"B1": {"name": "PIK3AP1 (protein, UniProt Q6ZUJ8 1-805, looked up)", "Phosphoinositide 3-kinase …": "MAASGVPRGCDILIVYSPDAEEWCQYLQTLFLSSRQVRSQKILTHRLGPEASFSAEDLSLFLSTRCVVVLLSAELVQHFHKPALLPLLQRAFHPPHRVVRLLCGVRDSEEFLDFFPDWAHWQELTCDDEPETYVAAVKKAISEDSGCDSVTDTEPEDEKVVSYSKQQNLPTVTSPGNLMVVQPDRIRCGAETTVYVIVRCKLDDRVATEAEFSPEDSPSVRMEAKVENEYTISVKAPNLSSGNVSLKIYSGDLVVCETVISYYTDMEEIGNLLSNAANPVEFMCQAFKIVPYNTETLDKLLTESLKNNIPASGLHLFGINQLEEEDMMTNQRDEELPTLLHFAAKYGLKNLTALLLTCPGALQAYSVANKHGHYPNTIAEKHGFRDLRQFIDEYVETVDMLKSHIKEELMHGEEADAVYESMAHLSTDLLMKCSLNPGCDEDLYESMAAFVPAATEDLYVEMLQASTSNPIPGDGFSRATKDSMIRKFLEGNSMGMTNLERDQCHLGQEEDVYHTVDDDEAFSVDLASRPPVPVPRPETTAPGAHQLPDNEPYIFKVFAEKSQERPGNFYVSSESIRKGPPVRPWRDRPQSSIYDPFAGMKTPGQRQLITLQEQVKLGIVNVDEAVLHFKEWQLNQKKRSESFRFQQENLKRLRDSITRRQREKQKSGKQTDLEITVPIRHSQHLPAKVEFGVYESGPRKSVIPPRTELRRGDWKTDSTSSTASSTSNRSSTRSLLSVSSGMEGDNEDNEVPEVTRSRSPGPPQVDGTPTMSLERPPRVPPRAASQRPPTRETFHPPPPVPPRGR"}, "B2": {"name": "NQO2 (protein, UniProt P16083 1-231, looked up)", "Ribosyldihydronicotinamide …": "MAGKKVLIVYAHQEPKSFNGSLKNVAVDELSRQGCTVTVSDLYAMNLEPRATDKDITGTLSNPEVFNYGVETHEAYKQRSLASDITDEQKKVREADLVIFQFPLYWFSVPAILKGWMDRVLCQGFAFDIPGFYDSGLLQGKLALLSVTTGGTAEMYTKTGVNGDSRYFLWPLQHGTLHFCGFKVLAPQISFAPEIASEEERKGMVAAWSQRLQTIWKEEPIPCTAHWHFGQ"}, "B3": {"name": "PRTG (protein, UniProt Q2VWP7 36-1150, looked up)", "Protogenin": "FSELSFVKEPQDVTVTRKDPVVLDCQAHGEVPIKVTWLKNGAKMSENKRIEVLSNGSLYISEVEGRRGEQSDEGFYQCLAMNKYGAILSQKAHLALSTISAFEVQPISTEVHEGGVARFACKISSHPPAVITWEFNRTTLPMTMDRITALPTGVLQIYDVSQRDSGNYRCIAATVAHRRKSMEASLTVIPAKESKSFHTPTIIAGPQNITTSLHQTVVLECMATGNPKPIISWSRLDHKSIDVFNTRVLGNGNLMISDVRLQHAGVYVCRATTPGTRNFTVAMATLTVLAPPSFVEWPESLTRPRAGTARFVCQAEGIPSPKMSWLKNGRKIHSNGRIKMYNSKLVINQIIPEDDAIYQCMAENSQGSILSRARLTVVMSEDRPSAPYNVHAETMSSSAILLAWERPLYNSDKVIAYSVHYMKAEGLNNEEYQVVIGNDTTHYIIDDLEPASNYTFYIVAYMPMGASQMSDHVTQNTLEDVPLRPPEISLTSRSPTDILISWLPIPAKYRRGQVVLYRLSFRLSTENSIQVLELPGTTHEYLLEGLKPDSVYLVRITAATRVGLGESSVWTSHRTPKATSVKAPKSPELHLEPLNCTTISVRWQQDVEDTAAIQGYKLYYKEEGQQENGPIFLDTKDLLYTLSGLDPRRKYHVRLLAYNNIDDGYQADQTVSTPGCVSVRDRMVPPPPPPHHLYAKANTSSSIFLHWRRPAFTAAQIINYTIRCNPVGLQNASLVLYLQTSETHMLVQGLEPNTKYEFAVRLHVDQLSSPWSPVVYHSTLPEAPAGPPVGVKVTLIEDDTALVSWKPPDGPETVVTRYTILYASRKAWIAGEWQVLHREGAITMALLENLVAGNVYIVKISASNEVGEGPFSNSVELAVLPKETSESNQRPKRLDSADAKVYSGYYHLDQKSMTGIAVGVGIALTCILICVLILIYRSKARKSSASKTAQNGTQQLPRTSASLASGNEVGKNLEGAVGNEESLMPMIMPNSFIDAKGGTDLIINSYGPIIKNNSKKKWFFFQDSKKIQVEQPQRRFTPAVCFYQPGTTVLISDEDSPSSPGQTTSFSRPFGVAADTEHSANSEGSHETGDSGRFSHESNDEIHLSSVISTTPPNL"}, "B4": {"name": "SKAP1 (protein, UniProt Q86WV1 1-359, looked up)", "Src kinase-associated …": "MQAAALPEEIRWLLEDAEEFLAEGLRNENLSAVARDHRDHILRGFQQIKARYYWDFQPQGGDIGQDSSDDNHSGTLGLSLTSDAPFLSDYQDEGMEDIVKGAQELDNVIKQGYLEKKSKDHSFFGSEWQKRWCVVSRGLFYYYANEKSKQPKGTFLIKGYGVRMAPHLRRDSKKESCFELTSQDRRSYEFTATSPAEARDWVDQISFLLKDLSSLTIPYEEDEEEEEKEETYDDIDGFDSPSCGSQCRPTILPGSVGIKEPTEEKEEEDIYEVLPDEEHDLEEDESGTRRKGVDYASYYQGLWDCHGDQPDELSFQRGDLIRILSKEYNMYGWWVGELNSLVGIVPKEYLTTAFEVEER"}, "B5": {"name": "SIGLEC10 (protein, UniProt Q96LC7 17-697, looked up)", "Sialic acid-binding Ig-like …": "MDGRFWIRVQESVMVPEGLCISVPCSFSYPRQDWTGSTPAYGYWFKAVTETTKGAPVATNHQSREVEMSTRGRFQLTGDPAKGNCSLVIRDAQMQDESQYFFRVERGSYVRYNFMNDGFFLKVTALTQKPDVYIPETLEPGQPVTVICVFNWAFEECPPPSFSWTGAALSSQGTKPTTSHFSVLSFTPRPQDHNTDLTCHVDFSRKGVSAQRTVRLRVAYAPRDLVISISRDNTPALEPQPQGNVPYLEAQKGQFLRLLCAADSQPPATLSWVLQNRVLSSSHPWGPRPLGLELPGVKAGDSGRYTCRAENRLGSQQRALDLSVQYPPENLRVMVSQANRTVLENLGNGTSLPVLEGQSLCLVCVTHSSPPARLSWTQRGQVLSPSQPSDPGVLELPRVQVEHEGEFTCHARHPLGSQHVSLSLSVHYSPKLLGPSCSWEAEGLHCSCSSQASPAPSLRWWLGEELLEGNSSQDSFEVTPSSAGPWANSSLSLHGGLSSGLRLRCEAWNVHGAQSGSILQLPDKKGLISTAFSNGAFLGIGITALLFLCLALIIMKILPKRRTQTETPRPRFSRHSTILDYINVVPTAGPLAQKRNQKATPNSPRTPLPPGAPSPESKKNQKKQYQLPSFPEPKSSTQAPESQESQEELHYATLNFPGVRPRPEARMPKGTQADYAEVKFQ"}, "B6": {"name": "FCRL5 (protein, UniProt Q96RD9 16-977, looked up)", "Fc receptor-like protein 5": "QFARTPRPIIFLQPPWTTVFQGERVTLTCKGFRFYSPQKTKWYHRYLGKEILRETPDNILEVQESGEYRCQAQGSPLSSPVHLDFSSASLILQAPLSVFEGDSVVLRCRAKAEVTLNNTIYKNDNVLAFLNKRTDFHIPHACLKDNGAYRCTGYKESCCPVSSNTVKIQVQEPFTRPVLRASSFQPISGNPVTLTCETQLSLERSDVPLRFRFFRDDQTLGLGWSLSPNFQITAMWSKDSGFYWCKAATMPYSVISDSPRSWIQVQIPASHPVLTLSPEKALNFEGTKVTLHCETQEDSLRTLYRFYHEGVPLRHKSVRCERGASISFSLTTENSGNYYCTADNGLGAKPSKAVSLSVTVPVSHPVLNLSSPEDLIFEGAKVTLHCEAQRGSLPILYQFHHEGAALERRSANSAGGVAISFSLTAEHSGNYYCTADNGFGPQRSKAVSLSVTVPVSHPVLTLSSAEALTFEGATVTLHCEVQRGSPQILYQFYHEDMPLWSSSTPSVGRVSFSFSLTEGHSGNYYCTADNGFGPQRSEVVSLFVTVPVSRPILTLRVPRAQAVVGDLLELHCEAPRGSPPILYWFYHEDVTLGSSSAPSGGEASFNLSLTAEHSGNYSCEANNGLVAQHSDTISLSVIVPVSRPILTFRAPRAQAVVGDLLELHCEALRGSSPILYWFYHEDVTLGKISAPSGGGASFNLSLTTEHSGIYSCEADNGLEAQRSEMVTLKVAVPVSRPVLTLRAPGTHAAVGDLLELHCEALRGSPLILYRFFHEDVTLGNRSSPSGGASLNLSLTAEHSGNYSCEADNGLGAQRSETVTLYITGLTANRSGPFATGVAGGLLSIAGLAAGALLLYCWLSRKAGRKPASDPARSPSDSDSQEPTYHNVPAWEELQPVYTNANPRGENVVYSEVRIIQEKKKHAVASDPRHLRNKGSPIIYSEVKVASTPVSGSLFLASSAPHR"}, "B7": {"name": "TMPRSS15 (protein, UniProt P98073 2-784; P98073 785-1019, looked up)", "Enteropeptidase non-catalytic …": "GSKRGISSRHHSLSSYEIMFAALFAILVVLCAGLIAVSCLTIKESQRGAALGQSHEARATFKITSGVTYNPNLQDKLSVDFKVLAFDLQQMIDEIFLSSNLKNEYKNSRVLQFENGSIIVVFDLFFAQWVSDENVKEELIQGLEANKSSQLVTFHIDLNSVDILDKLTTTSHLATPGNVSIECLPGSSPCTDALTCIKADLFCDGEVNCPDGSDEDNKMCATVCDGRFLLTGSSGSFQATHYPKPSETSVVCQWIIRVNQGLSIKLSFDDFNTYYTDILDIYEGVGSSKILRASIWETNPGTIRIFSNQVTATFLIESDESDYVGFNATYTAFNSSELNNYEKINCNFEDGFCFWVQDLNDDNEWERIQGSTFSPFTGPNFDHTFGNASGFYISTPTGPGGRQERVGLLSLPLDPTLEPACLSFWYHMYGENVHKLSINISNDQNMEKTVFQKEGNYGDNWNYGQVTLNETVKFKVAFNAFKNKILSDIALDDISLTYGICNGSLYPEPTLVPTPPPELPTDCGGPFELWEPNTTFSSTNFPNSYPNLAFCVWILNAQKGKNIQLHFQEFDLENINDVVEIRDGEEADSLLLAVYTGPGPVKDVFSTTNRMTVLLITNDVLARGGFKANFTTGYHLGIPEPCKADHFQCKNGECVPLVNLCDGHLHCEDGSDEADCVRFFNGTTNNNGLVRFRIQSIWHTACAENWTTQISNDVCQLLGLGSGNSSKPIFPTDGGPFVKLNTAPDGHLILTPSQQCLQDSLIRLQCNHKSCGKKLAAQDITPK", "Enteropeptidase catalytic …": "IVGGSNAKEGAWPWVVGLYYGGRLLCGASLVSSDWLVSAAHCVYGRNLEPSKWTAILGLHMKSNLTSPQTVPRLIDEIVINPHYNRRRKDNDIAMMHLEFKVNYTDYIQPICLPEENQVFPPGRNCSIAGWGTVVYQGTTANILQEADVPLLSNERCQQQMPEYNITENMICAGYEEGGIDSCQGDSGGPLMCQENNRWFLAGVTSFGYKCALPNRPGVYARVSRFTEWIQSFLH"}}}
{"tested_on": "plasma proteins", "test": "Plasma proteins modulated between baseline and day 28 in responders (CR, VGPR, PR; n = 19), Example 6 (Table 13)", "format": "in vivo, human", "conditions": "plasma protein (OLINK NPX); responders (CR, VGPR, PR; n = 19); itacitinib 200 mg or 300 mg QD with corticosteroids; day 28 vs baseline", "method_in_brief": "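Plasma at baseline/screening and day 28 profiled for >1000 proteins by OLINK proximity extension assay, reported as NPX (log2). Steroid-naive and steroid-refractory patients pooled. Paired and unpaired t tests, ANOVA and Pearson correlation applied; significance at P<0.05.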"}
{"molecule": "B1", "Fold Change, Decreased Expression from Baseline to Day 28": "−1.7193"}
{"molecule": "B2", "Fold Change, Increased Expression from Baseline to Day 28": 1.0895}
{"molecule": "B3", "Fold Change, Increased Expression from Baseline to Day 28": 1.1026}
{"molecule": "B4", "Fold Change, Decreased Expression from Baseline to Day 28": "−1.8075"}
{"molecule": "B5", "Fold Change, Decreased Expression from Baseline to Day 28": "−1.4974"}
{"molecule": "B6", "Fold Change, Decreased Expression from Baseline to Day 28": "−1.3113"}
{"molecule": "B7", "Fold Change, Increased Expression from Baseline to Day 28": 3.0633}
